Data published in patent US20170165339A1.

B1: … (SEQ ID NO: 199) (peptide)
peptide: RYAEEVGIF
B2: … (SEQ ID NO: 200) (peptide)
peptide: YYGPSLFLL
B3: … (SEQ ID NO: 201) (peptide)
peptide: IYATEAHVF
B4: … (SEQ ID NO: 202) (peptide)
peptide: VYWDSAGAAHF
B5: … (SEQ ID NO: 204) (peptide)
peptide: TYELRYFQI
B6: … (SEQ ID NO: 207) (peptide)
peptide: AYVVFVSTL
B7: … (SEQ ID NO: 209) (peptide)
peptide: TYKDEGNDYF
B8: … (SEQ ID NO: 218) (peptide)
peptide: YYKSTSSAF
B9: … (SEQ ID NO: 222) (peptide)
peptide: TFSVSSHLF
B10: … (SEQ ID NO: 268) (peptide)
peptide: QYLGQIQHI
B11: … (SEQ ID NO: 269) (peptide)
peptide: YFIDSTNLKTHF
B12: … (SEQ ID NO: 270) (peptide)
peptide: NYYEVHKELF
B13: … (SEQ ID NO: 277) (peptide)
peptide: VYQGHTALL
B14: … (SEQ ID NO: 281) (peptide)
peptide: PYRLIFEKF
B15: … (SEQ ID NO: 285) (peptide)
peptide: HYPPVQVLF
B16: … (SEQ ID NO: 287) (peptide)
peptide: LYITEPKTI

Molecular target: HLA-A*24 (human)
Assay: UV peptide-exchange ELISA, yield grade

Binder | peptide exchange yield [%]
B1 | 50 to 75
B2 | 50 to 75
B3 | 50 to 75
B4 | > 75
B5 | > 75
B6 | 20 to 49
B7 | 50 to 75
B8 | 50 to 75
B9 | 50 to 75
B10 | 50 to 75
B11 | 50 to 75
B12 | 50 to 75
B13 | > 75
B14 | 20 to 49
B15 | 50 to 75
B16 | 50 to 75
